In patent publication US20260085127A1:

Experiments:
[1] = target: T1, human CD39 (Accession No. NM_001776.6) expressed on cells (human) (UniProt P49961); experiment: flow cytometry, Jurkat/TIM-3 + CD39 cells, KD from MFI
T1 sequence (looked up): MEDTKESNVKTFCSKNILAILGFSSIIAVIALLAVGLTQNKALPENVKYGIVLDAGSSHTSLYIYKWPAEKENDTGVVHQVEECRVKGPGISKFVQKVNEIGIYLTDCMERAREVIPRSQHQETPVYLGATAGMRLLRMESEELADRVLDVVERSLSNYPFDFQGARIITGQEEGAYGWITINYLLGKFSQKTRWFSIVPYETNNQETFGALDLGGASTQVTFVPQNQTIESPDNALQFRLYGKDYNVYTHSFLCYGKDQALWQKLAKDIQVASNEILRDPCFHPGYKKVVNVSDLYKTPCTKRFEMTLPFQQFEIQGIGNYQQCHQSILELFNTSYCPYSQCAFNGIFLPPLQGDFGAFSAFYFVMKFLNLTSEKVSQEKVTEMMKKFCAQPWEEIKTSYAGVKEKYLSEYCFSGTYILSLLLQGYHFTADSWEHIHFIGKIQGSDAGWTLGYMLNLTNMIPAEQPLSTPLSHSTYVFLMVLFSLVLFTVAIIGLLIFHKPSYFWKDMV

[2] = target: T1, human CD39 (Accession No. NM_001776.6) expressed on cells (human); experiment: flow cytometry, Jurkat/CD39 cells, KD from MFI
[3] = target: T2, recombinant human CD39 (in-house product, 38 to 478 aa of Accession No. NM_001776.6) (human) (UniProt P49961); experiment: SPR Biacore8K, antibody captured on anti-human IgG, antigen as analyte
T2 sequence (looked up): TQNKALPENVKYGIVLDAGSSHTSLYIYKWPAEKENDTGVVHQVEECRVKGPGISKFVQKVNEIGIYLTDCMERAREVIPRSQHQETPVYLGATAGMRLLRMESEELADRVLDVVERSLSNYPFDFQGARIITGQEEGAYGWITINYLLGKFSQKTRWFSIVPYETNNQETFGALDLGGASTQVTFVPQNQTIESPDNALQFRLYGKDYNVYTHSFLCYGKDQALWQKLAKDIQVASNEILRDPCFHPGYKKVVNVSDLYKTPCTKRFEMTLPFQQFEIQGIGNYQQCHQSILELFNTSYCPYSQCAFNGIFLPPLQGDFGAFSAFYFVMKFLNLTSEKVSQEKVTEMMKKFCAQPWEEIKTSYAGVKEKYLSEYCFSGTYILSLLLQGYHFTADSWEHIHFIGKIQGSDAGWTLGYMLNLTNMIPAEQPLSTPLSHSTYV

Kd [1]: 2.08 nM
Kd [2]: 1.88 nM
Kd [3]: 0.106 nM
koff [3]: 0.000176 s⁻¹
kon [3]: 1.66e+06 M⁻¹ s⁻¹
B1: HuP4_41_sc (antibody, part only; not given: linker and LALA Fc, not shown: a dimerising Fc or GST)
scFv, part: QVQLVESGGGVVQPGGSLRLSCVVSGFTLTNYGVHWVRQAPGKGLEWLAVILRRGSTDYNAAFMSRLAISKDNSKNTVYLELNSLRLDDTAVVAGDYFDYWGQGTTVTVSSGGGGSGGGGSGGGGSGGGGSQVQLVESGGGVVQPGGSLRLSCVVSGFTLTNYGVHWVRQAPGKGLEWLAVILRRGSTDYNAAFMSRLAISKDNSKNTVYLELNSLRLDDTAVVAGDYFDYWGQGTTVTVSS
